Source: the nanobody polyreactivity screen of Harvey et al. (2022)

Assay: yeast display, Sf9 membrane polyspecificity reagent, FACS + sequencing; frameworks hold sequencing errors
In short: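 A synthetic nanobody library was expressed on Saccharomyces cerevisiae BJ5465 by galactose induction for 36–48 hours. The library was stained for 1 hour at 4 °C with 10% biotinylated, detergent-solubilized Sf9 membrane reagent and enriched with streptavidin microbeads before FACS. Low and high (top ~1%) gates were set on anti-HA fluorescence for expression and streptavidin fluorescence for reagent binding, and each polyreactivity label reflects the gate of origin.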

| Sequence | polyreactivity (PSR sort gate) |
| --- | --- |
| QVQLVESGGGLVQAGGSLRLSCAASGFTFRYYVMGWYRQAPGKERELVARISTGASTHYADSVKGRFTISRDNAKNSVYLQKNSLKPEDTAVYYCASDHPAFGPGYSFDYWGLGTQVTVSS | low polyreactivity |
| QVQLVESGGGLVQAGGSLRLSCAASGKIFYEYTMGWYRQAPGKERELVAAISWSGVSTYYADSVKGRFTISRDNAKNTVYLQMNSLKPEDTAVYYCAADRGNDYWGQGTQVTVSS | low polyreactivity |
| QVQLVESGGGLVQAGGSLRLSCAASGSTFDVYAMGWYRQGPGKERELVATISNYGGDTYYADSVKGRFTISRDNAENTVYLQMNTLKPEDTAVYYCNAYLRFVDVSLDYQLLLEHDFWGQGTQVTVSS | low polyreactivity |
| QVQLVESGGGLVQAGGSLRLSCAASGFTFLVYAMGWYRQAPGKERELVAAISRRGGSTYYADSVKGRFTISRDNAKNTVYLQINSLKPEDTAVYYCNVDRYYRIGYYRLTMGYWGQGTQVTVSS | high polyreactivity |
| QVQLVESGGGLVQAGGSLRLSCAASGSTFPYYAMGWYRQAPGKERELVAAISRGDSTNYADSVKGRFTISRDNAKNTVYLQMNSLKPEDTAVYYCAARLQYRRTSVKYYYWGQGTQVTVSS | high polyreactivity |
| QVQLVESGGGLVQAGGSLRLSCAASGIIFESNVMGWYRQAPGKERELVAAISRSGSRTYYADSVKGRFTISRDNAKNTVYLQMNSLKPEDTAVYYCATDSHTADEYEHWGQGTQVTVSS | high polyreactivity |
| QVQLVESGRGLVQAGGSLRLSCAASGSIFYGNTMGWYRQAPGTERELVASITRPGDRTYYADSVKGRFTLSRDNAKNTVDLQMNSLKAEDTAVYYCNAGLVLPPPGACIVYFDQMDYWGQGTQVTVSS | low polyreactivity |
| QVQLVESGGGLVQAGGSLRLSCAASGIIFPYNTMGWYRQAPGKERELVASIDDGGSTNYADSVKGRFTISRDNAKNTVYLQMNSLKPEDTAVYYCAADPYWFFPHYDSWGQGTQVTVSS | low polyreactivity |
| QVQLVESGGGLVQAGGSLRLSCAASGRTFGYYGMGWYRQAPGKERELVAAITGSGGSTYYADSVKGRFTISRDNAKNTVYLQMNSLKPEDTAVYYCAATYLSRWTLYDYWGQGTQVTVSS | high polyreactivity |
| QVQLVESGGGLVQAGGSLRLTCAASGFTFHSYAMGWYRQSPGTERELVAAISARGGSTYYADSVKGRLTISRDNAKNTVYLQMNSLKPEDTAFYYCAAYSYQVRFYYWGQGTQVTVSS | high polyreactivity |
| QVQLVESGGGLVQAGRSLRLTCAASGFTFADNTMGWYRQAPGKDRELVAAINDAGGTNYADSVKGRFTISRDNEKNTVYLQMNSLKAEDTAVYYCAADGRIYLTYHEMEYWGQGTQVTVSS | low polyreactivity |
| QVQLVESGGGLVQAGGTLRLSCAASGSTFGYPMGGYRQSPGKERELVAAMTSTGGSTYYADSVKGRFTISRDNAKITVYLQMNSQKPEDTAVYYCAADAYWIRSRFLYRIRYNYWGLGTQVTVSS | high polyreactivity |
| QVQLVESGGGLVQAGGSLRLSCAASGRNFSYYVMGWYRPAHGKERELVAAITSGGSTNYAHSVKGRFTISRDNAKNTVYLQMNSLKPEDTAVYYCNRAYTYINRLYGYWGQGTQVTVST | high polyreactivity |
| QFQLVESGGGLVQAGGSLRLSCASSGRTFGYNTMGWYRQAPGKERELVAAINYSGGSTYYADSVKGRFTISRDNAKNTVYLQMNSLKPEDTAVYYCNAKPRWYVPYDYWGQGTQVTVSS | high polyreactivity |
| QVQLVESGGCLVQAGGSLRLSCAASGLLFYFYAMGWYRQAPGKEREFVAAISSGGDTYYADSVKGRFTISRDNSKNTVYLQMNSLKPVDTAVYYCAVGTVYLTYRGYEYWGQGTQVTVSS | high polyreactivity |
| QVQLVESGGGLVQAGGSLRLSCAASGFTFRRYAMGWYRQAPGKERELVATITIGGSTSYADSVKGRFTISRDNAKNTVYLQMNSLKPEDTAVYYCAAVANPNRYRFDYWGQGSQVTVSS | high polyreactivity |

| Sequence | polyreactivity (PSR sort gate) |
| --- | --- |
| QVQLVESGGGLVQAGGSLRLSCAASGLIFYAYVMGWYRPAPGKERELVAAITVSGGSTYYADSVKGRFTISRDNAKNTVYLQMNSLKPEDTAVYYCAADWNFYQRTFDSWGQGTQVTVSS | low polyreactivity |
| QVQLVESGGGLVQAGGSLRLSCAASGSILRSNAMGWYRQAPGKERELVAAITFNGGSTYADSVKGRFTISRDNAKNTVYLQMNSLKPEDTAVYYCATGDGPSLFDYWGQGTQVTVSS | low polyreactivity |
| QVQLVESGGGLVQAGGSLRLSCAASGRTIRHNAMGWYRQAPGKERELVAAISRSGGSTYYADSVKGRFTISRDNAKNTVYLQMNSLKREDTAVYYCAAGYHGYDWGQGTQVTVSS | high polyreactivity |
| QVQLVESGGGLVQAGGSLRLSCAASGFTFPYYAMGWYRQAPGKERELVADITSGGGTNYADSVKGRFTISRDNAKNTVYLQMNSLKPEDTAVYYCAADAYHQGMDYWGQGTQVTVSS | low polyreactivity |
| QVQLVESGGGLVQAGGSLRLSCAASGSTFKQYAMGWYRQAPGKERELVAAISSSGSTYYADSVKGRFTISRDNAKNTVYLQMNSLKPEDTAVYYCARSRYLWYTVPPKYGYWGQGTQVTVSS | high polyreactivity |
| QVQLVESGGGIVQAGGSLRLSCAASGFTFDYNTMGWYRQAPGKERELVAAISWSGGSTYYADSVKGRFTISRDNAKNTVYLQMNSLKPEDTAVYYCAAAWSYRYELYYCGQGTQVTVSS | low polyreactivity |
| QVQLQESGGGLVQAGGCLSCTASGTIFGQGDMGWYRQAPGKERELVATINDGASTYYADSVKGRFTISRDKAKNTVNLQKNSLKPDDTAVYYCAVFTDITTYFGYWGQGTQVTVSS | low polyreactivity |
| QVQLVESGGGLVQAGGSLRLSCAASGNIFVINAMGWYRQAPGKERELVAAISWSTANTYYADSVKGRFTISRDNAKNTVYLQLNSLKPEDTAVYYCAAVFRYYTYSGAVRYYYWGQGTQVTVSS | high polyreactivity |
| QVQLVESGGGLVQAGGSLRLSCAASVRIFWYNAMGWYRQAPGKERELVATISSSGSTNYADSVKGRFTISRDNAKNTVYLQMNSLKPEDTAVYYGAPGKTGFRYGGGDSTQEYWGQGTQVTVSS | low polyreactivity |
| QVQLVESGGGLVQAGGSLRLSCAASGRIFYDNTMGWYRQAPGKERELVATISSAASTNYADSVKGRFTISRDNAKNTVYLQMNSLKPEDTAVYYCAAEWSTYGYQVLPVDYDYWGQGTQVTVSS | low polyreactivity |
| QVQLVESGGGLVQAGGSLRLSCAASGRTFAWYAMGWYRQAPGKERELVAVIRRGSGDTYYADSVKGRFTISRDNAKNTVYLQMNSLKPEDTAVYYCAAKSVAYKTRAGGVRYESWGQGTQVTVSS | high polyreactivity |
| QVQLVESGGGLVQAGGSLRLSCAASGSTFGPNTMGWYRQAPGKERELVAAITTRGGRTYYADSVKGRFTISRDNAKNTVYLQMNSLKPEDTAVYYCAASAPYYGRGGLVGYWGQGTQVTVSS | high polyreactivity |
| QVQLVESGGGLVQAGGSLRLSCAASGRNIQGYAMGWYRQAPGKESELVAAITLSGGSTYYADSVKGRFTISRDNAKNTVYLQMNSLKPEVTAVYYCNAYYPDEPSLYDYWGQGTQVTVSS | low polyreactivity |
| QVQLVESGGGLVQAGVSLRLSCAASGSIFDFYAMGWYRQAPGKERELVATITASGGSTYYADSVKGRFTISRDNAKNTVYLQMNSLKPEDTAVYYCNADSVYWGQGTQVTVSS | low polyreactivity |
| QVQLVESGGGLVQAGGTLRLSCAASGRIFGPYAMGWYRQAPWKERELVAAISFSGSGTYYADSVKGRFTISRDNAKNTVYFQMNSLKAEDTAVYYCAATSRKIVAFDHDYWGQGTQVTVSS | low polyreactivity |
| QVQLVESGGGLVQAGGSLRLSCAASGFTFRFYAMGWYRQAPGKERELVAAISRSGGDTYYADSVKGRFTISRDNAKNTVYLQRNRLIPEDTAVYYCNKATYRVAGRDFDYWGQGTQVTVSS | high polyreactivity |
